Several values for one entry are separate records, joined by “and”; a condition that tells them apart may be missing. Equal entries are not always repeated.
B1: SNARE-associated protein Snapin, O95295 (parent)
chain: MAGAGSAAVSGAGTPVAGPTGRDLFAEGLLEFLRPAVQQLDSHVHAVRESQVELREQIDNLATELCRINEDQKVALDLDPYVKKLLNARRRVVLVNNILQNAQERLRRLNHSVAKETARRRAMLDSGIYPPGSPGK
B2: Colicin-E1, P02978 (parent)
chain: METAVAYYKDGVPYDDKGQVIITLLNGTPDGSGSGGGGGKGGSKSESSAAIHATAKWSTAQLKKTQAEQAARAKAAAEAQAKAKANRDALTQRLKDIVNEALRHNASRTPSATELAHANNAAMQAEDERLRLAKAEEKARKEAEAAEKAFQEAEQRRKEIEREKAETERQLKLAEAEEKRLAALSEEAKAVEIAQKKLSAAQSEVVKMDGEIKTLNSRLSSSIHARDAEMKTLAGKRNELAQASAKYKELDELVKKLSPRANDPLQNRPFFEATRRRVGAGKIREEKQKQVTASETRINRINADITQIQKAISQVSNNRNAGIARVHEAEENLKKAQNNLLNSQIKDAVDATVSFYQTLTEKYGEKYSKMAQELADKSKGKKIGNVNEALAAFEKYKDVLNKKFSKADRDAIFNALASVKYDDWAKHLDQFAKYLKITGHVSFGYDVVSDILKIKDTGDWKPLFLTLEKKAADAGVSYVVALLFSLLAGTTLGIWGIAIVTGILCSYIDKNKLNTINEVLGI
B3: Lysozyme C, P61626 (parent)
chain: MKALIVLGLVLLSVTVQGKVFERCELARTLKRLGMDGYRGISLANWMCLAKWESGYNTRATNYNAGDRSTDYGIFQINSRYWCNDGKTPGAVNACHLSCSALLQDNIADAVACAKRVVRDPQGIRAWVAWRNRCQNRDVRQYVQGCGV
B4: Phosphocarrier protein HPr, P42013 (parent)
chain: MAEKTFKVVSDSGIHARPATILVQTASKFNSEIQLEYNGKTVNLKSIMGVMSLGIPKGATIKITAEGADAAEAMAALTDTLAKEGLAE
B5: Phosphocarrier protein HPr, P08877 (parent)
chain: MAQKTFKVTADSGIHARPATVLVQTASKYDADVNLEYNGKTVNLKSIMGVMSLGIAKGAEITISASGADENDALNALEETMKSEGLGE
B6: Dihydrofolate reductase type 2, P00383 (parent)
chain: MERSSNEVSNPVAGNFVFPSNATFGMGDRVRKKSGAAWQGQIVGWYCTNLTPEGYAVESEAHPGSVQIYPVAALERIN
B7: Ribose import binding protein RbsB, P02925 (parent)
chain: MNMKKLATLVSAVALSATVSANAMAKDTIALVVSTLNNPFFVSLKDGAQKEADKLGYNLVVLDSQNNPAKELANVQDLTVRGTKILLINPTDSDAVGNAVKMANQANIPVITLDRQATKGEVVSHIASDNVLGGKIAGDYIAKKAGEGAKVIELQGIAGTSAARERGEGFQQAVAAHKFNVLASQPADFDRIKGLNVMQNLLTAHPDVQAVFAQNDEMALGALRALQTAGKSDVMVVGFDGTPDGEKAVNDGKLAATIAQLPDQIGAKGVETADKVLKGEKVQAKYPVDLKLVVKQ
B8: Glutathione S-transferase Mu 1, P04905 (parent)
chain: MPMILGYWNVRGLTHPIRLLLEYTDSSYEEKRYAMGDAPDYDRSQWLNEKFKLGLDFPNLPYLIDGSRKITQSNAIMRYLARKHHLCGETEEERIRADIVENQVMDNRMQLIMLCYNPDFEKQKPEFLKTIPEKMKLYSEFLGKRPWFAGDKVTYVDFLAYDILDQYHIFEPKCLDAFPNLKDFLARFEGLKKISAYMKSSRYLSTPIFSKLAQWSNK
B9: Phosphoglycerate kinase, P00560 (parent)
chain: MSLSSKLSVQDLDLKDKRVFIRVDFNVPLDGKKITSNQRIVAALPTIKYVLEHHPRYVVLASHLGRPNGERNEKYSLAPVAKELQSLLGKDVTFLNDCVGPEVEAAVKASAPGSVILLENLRYHIEEEGSRKVDGQKVKASKEDVQKFRHELSSLADVYINDAFGTAHRAHSSMVGFDLPQRAAGFLLEKELKYFGKALENPTRPFLAILGGAKVADKIQLIDNLLDKVDSIIIGGGMAFTFKKVLENTEIGDSIFDKAGAEIVPKLMEKAKAKGVEVVLPVDFIIADAFSADANTKTVTDKEGIPAGWQGLDNGPESRKLFAATVAKAKTIVWNGPPGVFEFEKFAAGTKALLDEVVKSSAAGNTVIIGGGDTATVAKKYGVTDKISHVSTGGGASLELLEGKELPGVAFLSEKK
B10: Tissue factor, P13726 (parent)
chain: METPAWPRVPRPETAVARTLLLGWVFAQVAGASGTTNTVAAYNLTWKSTNFKTILEWEPKPVNQVYTVQISTKSGDWKSKCFYTTDTECDLTDEIVKDVKQTYLARVFSYPAGNVESTGSAGEPLYENSPEFTPYLETNLGQPTIQSFEQVGTKVNVTVEDERTLVRRNNTFLSLRDVFGKDLIYTLYYWKSSSSGKKTAKTNTNEFLIDVDKGENYCFSVQAVIPSRTVNRKSTDSPVECMGQEKGEFREIFYIIGAVVFVVIILVIILAISLHKCRKAGVGQSWKENSPLNVS

Variants of: B1
Settings: Homo sapiens; pH 7; Thermal; absorbance; Phosphate buffer; transition: 2; reversible: yes; whole UniProt chain shown

Row | Variant | Tm | change of melting temperature, mutant - wild type (higher = more stable)
1 | C66S | 72.4 °C | 1.4 °C

Same assay, conditions: Homo sapiens; pH 7.4; Thermal; CD; Tris 50 mM; whole UniProt chain shown

Row | Variant | Tm | change of melting temperature, mutant - wild type (higher = more stable)
2 | C66S | 60.1 °C | 2.2 °C

Variants of: B2
Settings: Escherichia coli; pH 6; 22 °C; Urea; Fluorescence; dimethylglutaric acid 10 mM; NaCl 100 mM; reversible: yes; structure 2I88; whole UniProt chain shown

Row | Variant | denaturant midpoint (higher = more stable)
3 | F355T | 4.9 M
4 | F484W | 4.6 M
5 | Y367W | 4.9 M
6 | F404W | 4.8 M
7 | Y507W | 5.7 M
8 | W460F W495F | 6.1 M
9 | W424F W495F | 6.1 M
10 | W424F W460F | 5.3 M
11 | F431W | 5.8 M
12 | F443W | 5.5 M
13 | F413W | 5.7 M

Variants of: B3
Settings: Homo sapiens; pH 2.35; 36.7 °C; Thermal; DSC; Gly-HCl 0.05 M; reversible: yes; structure 1LZ1; whole UniProt chain shown

Row | Variant | unfolding enthalpy (calorimetric) | unfolding enthalpy (van 't Hoff)
14 | I77A | 55.7 kcal/mol | 58.1 kcal/mol

Same assay, conditions: Homo sapiens; pH 2.9; 47.2 °C; Thermal; DSC; Gly-HCl 0.05 M; reversible: yes; structure 1LZ1; whole UniProt chain shown

Row | Variant | unfolding enthalpy (calorimetric) | unfolding enthalpy (van 't Hoff)
15 | I77A | 72.7 kcal/mol | 74.8 kcal/mol

Same assay, conditions: Homo sapiens; pH 4; 10 °C; GdnHCl; CD; GdnHCl 40 mM; reversible: yes; structure 1LZ1; whole UniProt chain shown

Row | Variant | ddG of mutation (higher = less stable) | denaturant m value | denaturant midpoint (higher = more stable) | unfolding free energy
16 | I74T | 6.67 kcal/mol | 2.96 kcal/mol/M | 2.7 M | 7.31 kcal/mol
17 | D85H | 4.54 kcal/mol | 3.2 kcal/mol/M | 3.1 M | 9.44 kcal/mol

Same assay, conditions: Homo sapiens; pH 3; 10 °C; GdnHCl; Fluorescence; glycine-HCl 40 mM; reversible: yes; structure 1LZ1; whole UniProt chain shown

Row | Variant | ddG of mutation (higher = less stable) | unfolding free energy
18 | C95A C113A | 5.7 kcal/mol | 6.1 kcal/mol

Same assay, conditions: Homo sapiens; pH 4; 10 °C; GdnHCl; CD; glycine-HCl 40 mM; reversible: yes; structure 1LZ1; whole UniProt chain shown

Row | Variant | ddG of mutation (higher = less stable) | unfolding free energy
19 | C95A C113A | 5.8 kcal/mol | 8.2 kcal/mol

Same assay, conditions: Homo sapiens; pH 5.2; 20 °C; GdnHCl; CD; Sodium acetate 20 mM; reversible: yes; structure 1LZ1; whole UniProt chain shown

Row | Variant | ddG of mutation (higher = less stable) | denaturant m value | denaturant midpoint (higher = more stable) | unfolding free energy
20 | W82C C83A | 2.2 kcal/mol | 3.3 kcal/mol/M | 3.79 M | 12.5 kcal/mol

Variants of: B4
Settings: Geobacillus stearothermophilus; pH 7; 25 °C; Urea; CD; sodium phosphate 10 mM; reversible: yes; structure 1Y4Y; whole UniProt chain shown

Row | Variant | ddG of mutation (higher = less stable) | denaturant m value | unfolding free energy
21 | F29W | 0.86 kcal/mol | 1.06 kcal/mol/M | 7.37 kcal/mol

Same assay, conditions: Geobacillus stearothermophilus; pH 7; Thermal; CD; sodium phosphate 10 mM; NaCl 750 mM; reversible: yes; structure 1Y4Y; whole UniProt chain shown

Row | Variant | Tm
22 | F29W | 85.3 °C

Same assay, conditions: Geobacillus stearothermophilus; pH 7; Thermal; CD; sodium phosphate 10 mM; reversible: yes; structure 1Y4Y; whole UniProt chain shown

Row | Variant | Tm | change of melting temperature, mutant - wild type (higher = more stable)
23 | F29W | 83.7 °C | -4.4 °C

Variants of: B5
Settings: Bacillus subtilis (strain 168); pH 7; 30 °C; Urea; CD; Potassium phosphate 50 mM; reversible: yes; structure 2HPR; whole UniProt chain shown

Row | Variant | ddG of mutation (higher = less stable) | denaturant midpoint (higher = more stable)
24 | S46D | -0.74 kcal/mol | 4.63 M

Same assay, conditions: Bacillus subtilis (strain 168); pH 7; 73.6 °C; Thermal; CD; Potassium phosphate 50 mM; reversible: yes; structure 2HPR; whole UniProt chain shown

Row | Variant | ddG of mutation (higher = less stable)
25 | S46D | -0.7 kcal/mol

Variants of: B6
Settings: Escherichia coli; pH 5; 22 °C; GdnHCl; CD; phosphate 10 mM; structure 1VIE; whole UniProt chain shown

Row | Variant | unfolding free energy
26 | W45F | 13.6 kcal/mol and 12.7 kcal/mol
27 | W38F | 15.3 kcal/mol and 15.6 kcal/mol

Variants of: B7
Settings: Escherichia coli (strain K12); pH 7.7; 25 °C; GdnHCl; Fluorescence; HEPES 10 mM; reversible: yes; structure 2DRI; whole UniProt chain shown

Row | Variant | unfolding free energy
28 | A52T | 1.8 kcal/mol

Variants of: B8
Settings: Rattus norvegicus; pH 6.5; 20 °C; Urea; CD; NaH2PO4 20 mM; NaCl 0.1 M; reversible: Yes; structure 1GSB; whole UniProt chain shown

Row | Variant | denaturant m value | denaturant midpoint (higher = more stable) | unfolding free energy
29 | F57S R82A | 2 kcal/mol/M | 4.6 M | 10.1 kcal/mol

Variants of: B9
Settings: Saccharomyces cerevisiae (strain ATCC 204508 / S288c); pH 6.5; 25 °C; GdnHCl; CD; Sodium phosphate 20 mM; reversible: yes; structure 3PGK; whole UniProt chain shown

Row | Variant | ddG of mutation (higher = less stable) | denaturant m value | unfolding free energy
30 | H389Q | 0.84 kcal/mol | 6.08 kcal/mol/M | 2.99 kcal/mol

Same assay, conditions: Saccharomyces cerevisiae (strain ATCC 204508 / S288c); pH 6.2; 20 °C; GdnHCl; CD; potassium phosphate 50 mM; structure 3PGK; whole UniProt chain shown

Row | Variant | denaturant m value | unfolding free energy
31 | W309F | 18 kcal/mol/M | 10.3 kcal/mol
32 | W309F W334F Y123W | 14 kcal/mol/M | 5.71 kcal/mol

Same assay, conditions: Saccharomyces cerevisiae (strain ATCC 204508 / S288c); pH 6.2; 20 °C; Thermal; CD; potassium phosphate 20 mM; structure 3PGK; whole UniProt chain shown

Row | Variant | unfolding free energy
33 | W309F | 5.43 kcal/mol
34 | W334F | 5.16 kcal/mol
35 | W309F W334F Y123W | 5.23 kcal/mol

Same assay, conditions: Saccharomyces cerevisiae (strain ATCC 204508 / S288c); pH 7.5; 22 °C; GdnHCl; CD; Tris 20 mM; structure 3PGK; whole UniProt chain shown

Row | Variant | ddG of mutation (higher = less stable) | denaturant midpoint (higher = more stable) | unfolding free energy
36 | W309Y | 3.6 kcal/mol | 0.55 M | 4.2 kcal/mol
37 | W334F | -2.2 kcal/mol | 0.64 M | 10 kcal/mol

Variants of: B10
Settings: Homo sapiens; pH 7.5; 23 °C; GdnHCl; Fluorescence; Tris-HCl 50 mM; reversible: yes; structure 1BOY; whole UniProt chain shown

Row | Variant | ddG of mutation (higher = less stable) | denaturant midpoint (higher = more stable) | unfolding free energy
38 | R232W | -0.6 kcal/mol | 1.37 M | 6.9 kcal/mol
